Measurements as given in patent publication US20030171279A1.

B1: herpes simplex virus 1 (HSV-1) US3 protein kinase (protein)
chain: MACRKFCRVYGGQGRRKEEAVPPETKPSRVFPHGPFYTPAEDACLDSPPPETPKPSHTTPPSEAERLCHLQEILAQMYGNQDYPIEDDPSADAADDVDEDAPDDVAYPEEYAEELFLPGDATGPLIGANDHIPPPCGASPPGIRRRSRDEIGATGFTAEELDAMDREAARAISRGGKPPSTMAKLVTGMGFTIHGALTPGSEGCVFDSSHPDYPQRVIVKAGWYTSTSHEARLLRRLDHPAILPLLDLHVVSGVTCLVLPKYQADLYTYLSRRLNPLGRPQIAAVSRQLLSAVDYIHRQGIIHRDIKTENIFINTPEDICLGDFGAACFVQGSRSSPFPYGIAGTIDTNAPEVLAGDPYTTTVDIWSAGLVIFETAVHNASLFSAPRGPKRGPCDSQITRIIRQAQVHVDEFSPHPESRLTSRYRSRAAGNNRPPYTRPAWTRYYKMDIDVEYLVCKALTFDGALRPSAAELLCLPLFQQK

How the values were obtained:
[1] = molecular target: mouse BAD (murine BAD pro-apoptotic polypeptide) (mouse) (UniProt Q61337); test: cell-based or functional assay
[2] = molecular target: T1, HSV-1 UL34 protein, P10218
T1 chain: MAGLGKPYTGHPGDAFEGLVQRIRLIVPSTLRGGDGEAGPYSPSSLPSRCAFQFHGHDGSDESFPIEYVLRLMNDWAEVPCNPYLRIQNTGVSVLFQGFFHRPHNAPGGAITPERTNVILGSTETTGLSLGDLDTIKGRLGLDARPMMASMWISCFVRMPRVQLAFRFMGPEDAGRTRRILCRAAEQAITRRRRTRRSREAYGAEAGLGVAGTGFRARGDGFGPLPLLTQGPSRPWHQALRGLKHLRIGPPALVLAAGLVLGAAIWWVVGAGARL

[3] = molecular target: T2, mouse BAD (murine BAD pro-apoptotic polypeptide)
T2 chain: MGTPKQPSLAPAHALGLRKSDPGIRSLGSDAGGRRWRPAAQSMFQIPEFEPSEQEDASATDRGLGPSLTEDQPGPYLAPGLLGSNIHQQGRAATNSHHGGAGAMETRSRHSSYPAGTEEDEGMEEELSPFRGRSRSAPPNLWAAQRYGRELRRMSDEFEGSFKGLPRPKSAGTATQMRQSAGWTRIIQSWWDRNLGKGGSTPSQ

| Molecule | DEVDase activity (fold increase over mock-infected cells) (fold increase) [1] | processing of UL34 protein (apparent Mr 30,000 against 33,000; 32P labelling and UL34 immunoblot) [2] | DNA fragmentation (agarose gel) [3] | cleavage of poly(ADP-ribose) polymerase (Mr 85,000 PARP cleavage product, immunoblot) [3] | electrophoretic mobility and total amount of BAD (immunoblot with anti-BAD antibody) [3] | levels of BAD phosphorylated at ser136, ser155 and ser112 (immunoblot with phospho-specific antibodies) [3] |
| --- | --- | --- | --- | --- | --- | --- |
| herpes simplex virus 1 (HSV-1) US3 protein kinase (from UniProt P04413 1-481) (enzyme) | < 2 |  |  |  |  |  |
| B1 |  | the fully processed UL34 protein was present in cells infected with HSV-1(F) but not cells infected with 120FR or R7041 | DNA fragmentation was not observed in extracts of Bac-Bad treated cells that had been previously exposed to Bac-US3 | readily detected in mock- or in Bac-WT-infected cells that had been exposed to Bac-Bad, but not in Bac-US3 infected cells that had been exposed to Bac-Bad | migrated more slowly and was significantly reduced in amount relative to those detected in lysates of cells exposed to BAC-WT or mock-infected prior to exposure to Bac-BAD | The levels of BAD phosphorylated at ser136, ser155, and ser112 present in cells mock infected were similar to those present in cells infected with Bac-WT or Bac-US3 |
